According to article PMC8740702:
pKd: −log10 of the molar value.

What follows are substances tested against X. citri VirD4 all-alpha domain (VirD4AAD) (Xanthomonas citri) (assay: ITC).
Work on “XAC2609_(XVIPCD) D383A/P384A (from UniProt A0AAI7ZGC7 311-431) (domain or fragment)” yielded a pKd of 4.55. “full-length X-Tfe^XAC2609 (from UniProt A0AAI7ZGC7 1-431) (natural protein)” was tested, and the pKd was 6.40. “XAC2609_(XVIPCD) H315A/P316A/D317A (from UniProt A0AAI7ZGC7 311-431) (domain or fragment)” was tested, and the pKd was 5.92. For “XAC2609_(XVIPCD) D363A (from UniProt A0AAI7ZGC7 311-431) (domain or fragment)”, the pKd was 4.54.

The substances below were run against X. citri VirD4 all-alpha domain (VirD4AAD) (Xanthomonas citri) (assay: SEC-MALS).
In the case of “X-Tfe^XAC2609 XVIPCD (XAC2609_(XVIPCD), residues 311–431) (from UniProt A0AAI7ZGC7 311-431) (domain or fragment)”, the stoichiometry N was 1. With “XAC2609_(XVIPCD)Δ20 (residues 311–411) (from UniProt A0AAI7ZGC7 311-411) (domain or fragment)” the stoichiometry N was 1.
